One test has as its target T1, recombinant human TL1A (human, UniProt O95150 71-251).
T1 construct: homotrimer; biotinylated for SPR capture; the ELISA paragraphs say only 'recombinant TL1A'; also called TNFSF15
T1 chain: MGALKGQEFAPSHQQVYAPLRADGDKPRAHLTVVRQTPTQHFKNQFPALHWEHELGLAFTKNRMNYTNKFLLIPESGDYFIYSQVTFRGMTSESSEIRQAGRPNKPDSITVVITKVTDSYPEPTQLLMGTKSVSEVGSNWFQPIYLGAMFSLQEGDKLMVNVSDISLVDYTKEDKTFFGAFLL
The test is described as follows: SPR, antibody injected over captured biotinylated human TL1A. As to the method:
An SPR assay was also used to determine whether the [xTL1A] bivalent antibody variants could bind recombinant human TL1A. […] A high concentration (1 μM) of [xTL1A] variant antibodies were injected in assay buffer (HBS-EP+, pH 7.4, Cytiva, product number BR100669).

For a further test, the target named is T2, human IL-23 (human, UniProt P29460 23-328; Q9NPF7 20-189).
T2 construct: Heterodimer p40/p19; Whole entries as named; also called IL-23 Human; recombinant human IL-23
T2 sequence 1: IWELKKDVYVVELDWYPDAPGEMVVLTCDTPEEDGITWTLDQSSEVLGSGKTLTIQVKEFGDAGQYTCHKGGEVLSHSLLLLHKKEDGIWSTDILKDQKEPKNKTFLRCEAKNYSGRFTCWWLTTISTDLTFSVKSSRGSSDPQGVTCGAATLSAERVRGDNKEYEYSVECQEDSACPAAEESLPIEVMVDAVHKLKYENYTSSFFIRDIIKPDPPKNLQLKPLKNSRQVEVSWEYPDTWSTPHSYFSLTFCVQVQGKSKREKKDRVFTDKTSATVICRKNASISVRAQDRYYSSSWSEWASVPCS
T2 sequence 2: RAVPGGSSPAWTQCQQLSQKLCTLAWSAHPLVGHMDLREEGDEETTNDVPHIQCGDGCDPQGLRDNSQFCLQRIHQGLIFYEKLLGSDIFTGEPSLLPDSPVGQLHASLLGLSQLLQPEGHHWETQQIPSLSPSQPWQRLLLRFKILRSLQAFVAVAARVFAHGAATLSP
The test is described as follows: SPR 37 C, antibody captured by anti-human Fc, cytokine injected. The method, then:
(§1) For these analyses, kinetic assays were conducted at 37° C. using a collection rate of 10 Hz on a BIAcore™ T200 instrument (GE Healthcare). An anti-human IgG antibody (anti-human Fc, catalog number 10-005-098, Jackson ImmunoResearch) was amine coupled to all four flow cells of a carboxymethylated dextran coated sensor chip (GE Healthcare) using the manufacturer's recommended protocol.

For the next test, the target named is T3, cynomolgus monkey IL-23 (cynomolgus monkey, limits assumed).
T3 construct: Heterodimer p40/p19; Whole entries as named; also called IL-23 Cyno
T3 chain 1: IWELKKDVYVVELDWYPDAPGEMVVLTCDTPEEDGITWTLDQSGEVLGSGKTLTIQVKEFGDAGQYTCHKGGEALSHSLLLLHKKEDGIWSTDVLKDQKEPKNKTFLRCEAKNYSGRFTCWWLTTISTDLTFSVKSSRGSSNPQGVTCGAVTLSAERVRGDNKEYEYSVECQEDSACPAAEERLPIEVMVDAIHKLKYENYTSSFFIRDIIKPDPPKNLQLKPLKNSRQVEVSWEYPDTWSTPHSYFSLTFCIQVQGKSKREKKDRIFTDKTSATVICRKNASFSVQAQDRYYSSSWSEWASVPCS
T3 chain 2: T2 sequence 2 with T12A, H75R, L131P
Described as above. As to the method: as §1

The next test has as its target T4, human IL-12 (human, UniProt P29460 23-328; P29459 23-219).
T4 construct: Heterodimer p40/p35; also called IL-12 Human
T4 sequence 1: T2 sequence 1
T4 sequence 2: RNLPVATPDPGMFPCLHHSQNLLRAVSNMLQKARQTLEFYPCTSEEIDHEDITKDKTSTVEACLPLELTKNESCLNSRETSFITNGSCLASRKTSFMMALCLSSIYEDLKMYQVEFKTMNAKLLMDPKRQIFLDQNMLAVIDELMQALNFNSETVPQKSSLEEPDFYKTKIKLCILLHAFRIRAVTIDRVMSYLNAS
The test is described as above. The method, then:
as §1

A further test has as its target T5, cynomolgus monkey IL-12 (cynomolgus monkey).
T5 construct: Heterodimer p40/p35; Whole entries as named; also called IL-12 Cyno
T5 chain 1: T3 chain 1
T5 chain 2: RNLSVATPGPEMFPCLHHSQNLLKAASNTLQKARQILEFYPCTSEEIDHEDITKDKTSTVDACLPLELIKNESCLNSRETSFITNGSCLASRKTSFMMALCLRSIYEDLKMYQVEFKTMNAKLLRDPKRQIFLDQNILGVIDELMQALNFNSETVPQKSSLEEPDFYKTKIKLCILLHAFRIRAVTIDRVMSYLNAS
The description is as above. The method, then: as §1

Residue numbers refer to the chain shown, from its start.

B1: [xTL1A]-0349 bivalent antibody (antibody, human IgG1, kappa, V domains shown)
VH: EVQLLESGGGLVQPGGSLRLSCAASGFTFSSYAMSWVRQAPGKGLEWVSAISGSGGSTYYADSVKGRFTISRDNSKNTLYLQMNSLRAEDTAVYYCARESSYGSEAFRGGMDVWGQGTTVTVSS
VL: DIQMTQSPSSLSASVGDRVTITCRASQSVSSYLAWYQQKPGKAPKLLIYDASNRATGVPSRFSGSGSGTDFTLTISSLQPEDFATYYCQQRSNWPWTFGQGTKVEIKR
notes: disabled (null) bivalent IgG1/kappa
With B1, the binding result with recombinant human TL1A was “no binding (tested: 1 µM)”.

B2: p40-0003 (antibody, human IgG1, kappa, V domains shown)
VH: EVQLVQSGAEVKKPGESLKISCKGSGYSFTTYWLGWVRQMPGKGLDWIGIMSPVDSDIRYSPSFQGQVTMSVDKSITTAYLQWNSLKASDTAMYYCARRRPGQGYFDFWGQGTLVTVSS
VL: DIQMTQSPSSLSASVGDRVTITCRASQGISSWLAWYQQKPEKAPKSLIYAASSLQSGVPSRFSGSGSGTDFTLTISSLQPEDFATYYCQQYNIYPYTFGQGTKLEIKR
notes: human IgG1 effector-function-minimized/kappa; also called anti-IL12p40 p40-0003 antibody; C230 (ustekinumab) variable regions
As to B2, the Kd stood at 0.16 nM with human IL-23, 0.317 nM with cynomolgus monkey IL-23, 0.156 nM with human IL-12 and 0.368 nM in the test with cynomolgus monkey IL-12.

The record behind these values is patent US20240059799A1 (Pfizer, published 2024).
